Assay results: patent US9192657B2

How the values were obtained:
[1] = biological target: endothelial protein C receptor (EPCR) on cells (Homo sapiens (Human)) (UniProt Q9UNN8)
[2] = biological target: endothelial protein C receptor (EPCR), as in the binding assays (Homo sapiens (Human)) (UniProt Q9UNN8); assay: apparent Kd; binding to immobilized soluble EPCR and to K293 cells transfected with wtEPCR (format of the value not told)
[3] = biological target: T1, PAR-1 N-terminal tail peptide (TR33-62) (artificial)
T1 sequence (peptide): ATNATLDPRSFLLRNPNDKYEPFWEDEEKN

[4] = biological target: T1, PAR-1 N-terminal tail peptide (TR33-62) (artificial); remark: listed apart in the source

PTGla-APC (APC with prothrombin residues 1-46) (from UniProt P00734) (enzyme)
concentration for half-maximal inhibition of staurosporine-induced endothelial apoptosis (fold higher concentration) [1]: 24 | Kd [2]: > 300 nM

recombinant wild-type activated protein C (enzyme)
cleavage of the TR33-62 peptide at Arg41, HPLC (fold lower kcat/Km than thrombin) [3]: 25000

S360A-APC (enzyme)
PAR-1 peptide (TR33-62) cleavage (% rwt-APC), catalytic efficiency by HPLC [4]: < 3 % rwt-APC

RR229/230AA-APC (enzyme)
PAR-1 peptide (TR33-62) cleavage (% rwt-APC), catalytic efficiency by HPLC [4]: 116 % rwt-APC
